Assay results from US9580731B2, “Methods of producing 7-carbon chemicals via c1 carbon chain elongation associated with coenzyme B synthesis” (INVISTA North America S.á r.l., priority 2012, dated 2017).

Assays:
Format in all cases: biochemical
[1] = ω-transaminase activity assay, reverse direction, 7-aminoheptanoate to pimelate semialdehyde; conditions: cell free extract, 10 mM 7-aminoheptanoate, 10 mM pyruvate, 25° C., 4 h, against empty vector control, FIG. 15
Description: (§1) A sequence encoding an N-terminal His-tag was added to the genes from Chromobacterium violaceum, Pseudomonas syringae, Rhodobacter sphaeroides, and Vibrio Fluvialis encoding the ω-transaminases of SEQ ID NOs: 8, 10, 11 and 13, respectively (see FIG. 7) such that N-terminal HIS tagged ω-transaminases could be produced. Each of the resulting modified genes was cloned into a pET21a expression vector under control of the T7 promoter and each expression vector was transformed into a BL21[DE3] E. coli host. The resulting recombinant E. coli strains were cultivated at 37° C. in a 250 mL shake flask culture containing 50 mL LB media and antibiotic selection pressure, with shaking at 230 rpm. Each culture was induced overnight at 16° C. using 1 mM IPTG.
(§2) The pellet from each induced shake flask culture was harvested via centrifugation. Each pellet was resuspended and lysed via sonication. The cell debris was separated from the supernatant via centrifugation and the cell free extract was used immediately in enzyme activity assays.
Enzyme activity assays in the reverse direction (i.e., 7-aminoheptanoate to pimelate semialdehyde) were performed in a buffer composed of a final concentration of 50 mM HEPES buffer (pH=7.5), 10 mM 7-aminoheptanoate, 10 mM pyruvate and 100 μM pyridoxyl 5′ phosphate. Each enzyme activity assay reaction was initiated by adding cell free extract of the ω-transaminase gene product or the empty vector control to the assay buffer containing the 7-aminoheptanoate and incubated at 25° C. for 4 h, with shaking at 250 rpm. The formation of L-alanine from pyruvate was quantified via RP-HPLC.

[2] = ω-transaminase activity assay, forward direction, pimelate semialdehyde to 7-aminoheptanoate; conditions: for ω-transaminase activity for converting pimelate semialdehyde to 7-aminoheptanoate (L-alanine to pyruvate): cell free extract, 10 mM pimelate semialdehyde, 10 mM L-alanine, 25° C., 4 h, against empty vector control, FIG. 16; for reversibility of the ω-transaminase activity: pimelate semialdehyde accepted, 7-aminoheptanoate synthesized: conclusion from forward and reverse assays of Example 2
Description: as §1, §2
Enzyme activity in the forward direction (i.e., pimelate semialdehyde to 7-aminoheptanoate) was confirmed for the transaminases of SEQ ID NO 10, SEQ ID NO 11 and SEQ ID NO 13. Enzyme activity assays were performed in a buffer composed of a final concentration of 50 mM HEPES buffer (pH=7.5), 10 mM pimelate semialdehyde, 10 mM L-alanine and 100 μM pyridoxyl 5′ phosphate. Each enzyme activity assay reaction was initiated by adding a cell free extract of the ω-transaminase gene product or the empty vector control to the assay buffer containing the pimelate semialdehyde and incubated at 25° C. for 4 h, with shaking at 250 rpm. The formation of pyruvate was quantified via RP-HPLC.

[3] = ω-transaminase activity assay, 7-aminoheptanol to 7-oxoheptanol; conditions: for ω-transaminase activity for converting 7-aminoheptanol to 7-oxoheptanol (pyruvate to L-alanine): cell free extract, 10 mM 7-aminoheptanol, 10 mM pyruvate, 25° C., 4 h, against empty vector control, FIG. 19; for ω-transaminase acceptance of 7-oxoheptanol, forming 7-aminoheptanol: concluded from reversibility of the ω-transaminase activity (Example 2)
Description: A nucleotide sequence encoding an N-terminal His-tag was added to the Chromobacterium violaceum, Pseudomonas syringae and Rhodobacter sphaeroides genes encoding the ω-transaminases of SEQ ID NOs: 8, 10 and 11, respectively (see FIG. 7) such that N-terminal HIS tagged ω-transaminases could be produced. The modified genes were cloned into a pET21a expression vector under the T7 promoter. Each expression vector was transformed into a BL21[DE3] E. coli host. Each resulting recombinant E. coli strain were cultivated at 37° C. in a 250 mL shake flask culture containing 50 mL LB media and antibiotic selection pressure, with shaking at 230 rpm. Each culture was induced overnight at 16° C. using 1 mM IPTG.
as §2
Enzyme activity assays in the reverse direction (i.e., 7-aminoheptanol to 7-oxoheptanol) were performed in a buffer composed of a final concentration of 50 mM HEPES buffer (pH=7.5), 10 mM 7-aminoheptanol, 10 mM pyruvate, and 100 μM pyridoxyl 5′ phosphate. Each enzyme activity assay reaction was initiated by adding cell free extract of the ω-transaminase gene product or the empty vector control to the assay buffer containing the 7-aminoheptanol and then incubated at 25° C. for 4 h, with shaking at 250 rpm. The formation of L-alanine was quantified via RP-HPLC.

[4] = Carboxylate reductase activity assay, N7-acetyl-7-aminoheptanoate to N7-acetyl-7-aminoheptanal (NADPH consumption); conditions: 2 mM N7-acetyl-7-aminoheptanoate, enhanced by gene product of sfp, room temperature, 20 min, against empty vector control, FIG. 12
Description: The activity of each of the N-terminal His-tagged carboxylate reductases of SEQ ID NOs: 3, 6, and 7 (see Examples 4, and FIG. 7) for converting N7-acetyl-7-aminoheptanoate to N7-acetyl-7-aminoheptanal was assayed in triplicate in a buffer composed of a final concentration of 50 mM HEPES buffer (pH=7.5), 2 mM N7-acetyl-7-aminoheptanoate, 10 mM MgCl2, 1 mM ATP, and 1 mM NADPH. The assays were initiated by adding purified carboxylate reductase and phosphopantetheine transferase or the empty vector control to the assay buffer containing the N7-acetyl-7-aminoheptanoate then incubated at room temperature for 20 min. The consumption of NADPH was monitored by absorbance at 340 nm.

ω-transaminase activity for converting 7-aminoheptanoate to pimelate semialdehyde (pyruvate to L-alanine) [1]	ω-transaminase activity for converting 7-aminoheptanol to 7-oxoheptanol (pyruvate to L-alanine) [3]	ω-transaminase acceptance of 7-oxoheptanol, forming 7-aminoheptanol [3]	Molecule	ω-transaminase activity for converting pimelate semialdehyde to 7-aminoheptanoate (L-alanine to pyruvate) [2]	reversibility of the ω-transaminase activity: pimelate semialdehyde accepted, 7-aminoheptanoate synthesized [2]	carboxylate reductase activity for converting N7-acetyl-7-aminoheptanoate to N7-acetyl-7-aminoheptanal (NADPH consumption, absorbance at 340 nm) [4]
accepted 7-aminoheptanote as substrate	accepted 7-aminoheptanol as substrate	accept 7-oxoheptanol as substrate	SEQ ID NO 11: Rhodobacter sphaeroides ω-transaminase, Genbank Accession No. ABA81135.1	accepted pimelate semialdehyde as substrate	accepted pimelate semialdehyde as substrate and synthesized 7-aminoheptanoate	–
accepted 7-aminoheptanote as substrate	accepted 7-aminoheptanol as substrate	accept 7-oxoheptanol as substrate	SEQ ID NO 10: Pseudomonas syringae ω-transaminase, Genbank Accession No. AAY39893.1 (protein, listed as Pseudomonas syringae) MSANNPQTLEWQALSSEHHLAPFSDYKQLKEKGPRIITRAEGVYLWDSEGNKILDGMSGLWCVAIGYGREELADAASKQMRELPYYNLFFQTAHPPVLELAKAISDIAPEGMNHVFFTGSGSEGNDTMLRMVRHYWALKGQPNKKTIISRVNGYHGSTVAGASLGGMTYMHEQGDLPIPGVVHIPQPYWFGEGGDMTPDEFGIWAAEQLEKKILELGVENVGAFIAEPIQGAGGVIVPPDSYWPKIKEILSRYDILFAADEVICGFGRTSEWFGSDFYGLRPDMMTIAKGLTSGYVPMGGLIVRDEIVAVLNEGGDFNHGFTYSGHPVAAAVALENIRILREEKIVERVRSETAPYLQKRLRELSDHPLVGEVRGVGLLGAIELVKDKTTRERYTDKGAGMICRTFCFDNGLIMRAVGDTMIIAPPLVISFAQIDELVEKARTCLDLTLAVLQG	accepted pimelate semialdehyde as substrate	accepted pimelate semialdehyde as substrate and synthesized 7-aminoheptanoate	–
accepted 7-aminoheptanote as substrate	–	–	SEQ ID NO 13: Vibrio fluvialis ω-transaminase, Genbank Accession No. AEA39183.1 (protein, listed as Vibrio fluvialis) MNKPQSWEARAETYSLYGFTDMPSLHQRGTVVVTHGEGPYIVDVNGRRYLDANSGLWNMVAGFDHKGLIDAAKAQYERFPGYHAFFGRMSDQTVMLSEKLVEVSPFDSGRVFYTNSGSEANDTMVKMLWFLHAAEGKPQKRKILTRWNAYHGVTAVSASMTGKPYNSVFGLPLPGFVHLTCPHYWRYGEEGETEEQFVARLARELEETIQREGADTIAGFFAEPVMGAGGVIPPAKGYFQAILPILRKYDIPVISDEVICGFGRTGNTWGCVTYDFTPDAIISSKNLTAGFFPMGAVILGPELSKRLETAIEAIEEFPHGFTASGHPVGCAIALKAIDVVMNEGLAENVRRLAPRFEERLKHIAERPNIGEYRGIGFMWALEAVKDKASKTPFDGNLSVSERIANTCTDLGLICRPLGQSVVLCPPFILTEAQMDEMFDKLEKALDKVFAEVA	accepted pimelate semialdehyde as substrate	accepted pimelate semialdehyde as substrate and synthesized 7-aminoheptanoate	–

The remaining lines, values behind:

Molecule	ω-transaminase activity for converting 7-aminoheptanoate to pimelate semialdehyde (pyruvate to L-alanine) [1]	ω-transaminase activity for converting 7-aminoheptanol to 7-oxoheptanol (pyruvate to L-alanine) [3]	ω-transaminase acceptance of 7-oxoheptanol, forming 7-aminoheptanol [3]	ω-transaminase activity for converting pimelate semialdehyde to 7-aminoheptanoate (L-alanine to pyruvate) [2]	reversibility of the ω-transaminase activity: pimelate semialdehyde accepted, 7-aminoheptanoate synthesized [2]	carboxylate reductase activity for converting N7-acetyl-7-aminoheptanoate to N7-acetyl-7-aminoheptanal (NADPH consumption, absorbance at 340 nm) [4]
SEQ ID NO 3: Mycobacterium smegmatis carboxylate reductase, Genbank Accession No. ABK71854.1 (protein, listed as Mycobacterium smegmatis) MTSDVHDATDGVTETALDDEQSTRRIAELYATDPEFAAAAPLPAVVDAAHKPGLRLAEILQTLFTGYGDRPALGYRARELATDEGGRTVTRLLPRFDTLTYAQVWSRVQAVAAALRHNFAQPIYPGDAVATIGFASPDYLTLDLVCAYLGLVSVPLQHNAPVSRLAPILAEVEPRILTVSAEYLDLAVESVRDVNSVSQLVVFDHHPEVDDHRDALARAREQLAGKGIAVTTLDAIADEGAGLPAEPIYTADHDQRLAMILYTSGSTGAPKGAMYTEAMVARLWTMSFITGDPTPVINVNFMPLNHLGGRIPISTAVQNGGTSYFVPESDMSTLFEDLALVRPTELGLVPRVADMLYQHHLATVDRLVTQGADELTAEKQAGAELREQVLGGRVITGFVSTAPLAAEMRAFLDITLGAHIVDGYGLTETGAVTRDGVIVRPPVIDYKLIDVPELGYFSTDKPYPRGELLVRSQTLTPGYYKRPEVTASVFDRDGYYHTGDVMAETAPDHLVYVDRRNNVLKLAQGEFVAVANLEAVFSGAALVRQIFVYGNSERSFLLAVVVPTPEALEQYDPAALKAALADSLQRTARDAELQSYEVPADFIVETEPFSAANGLLSGVGKLLRPNLKDRYGQRLEQMYADIAATQANQLRELRRAAATQPVIDTLTQAAATILGTGSEVASDAHFTDLGGDSLSALTLSNLLSDFFGFEVPVGTIVNPATNLAQLAQHIEAQRTAGDRRPSFTTVHGADATEIRASELTLDKFIDAETLRAAPGLPKVTTEPRTVLLSGANGWLGRFLTLQWLERLAPVGGTLITIVRGRDDAAARARLTQAYDTDPELSRRFAELADRHLRVVAGDIGDPNLGLTPEIWHRLAAEVDLVVHPAALVNHVLPYRQLFGPNVVGTAEVIKLALTERIKPVTYLSTVSVAMGIPDFEEDGDIRTVSPVRPLDGGYANGYGNSKWAGEVLLREAHDLCGLPVATFRSDMILAHPRYRGQVNVPDMFTRLLLSLLITGVAPRSFYIGDGERPRAHYPGLTVDFVAEAVTTLGAQQREGYVSYDVMNPHDDGISLDVFVDWLIRAGHPIDRVDDYDDWVRRFETALTALPEKRRAQTVLPLLHAFRAPQAPLRGAPEPTEVFHAAVRTAKVGPGDIPHLDEALIDKYIRDLREFGLI	–	–	–	–	–	accepted N7-acetyl-7-aminoheptanoate as substrate
SEQ ID NO 8: Chromobacterium violaceum ω-transaminase, Genbank Accession No. AAQ59697.1 (protein, listed as Chromobacterium violaceum) MQKQRTTSQWRELDAAHHLHPFTDTASLNQAGARVMTRGEGVYLWDSEGNKIIDGMAGLWCVNVGYGRKDFAEAARRQMEELPFYNTFFKTTHPAVVELSSLLAEVTPAGFDRVFYTNSGSESVDTMIRMVRRYWDVQGKPEKKTLIGRWNGYHGSTIGGASLGGMKYMHEQGDLPIPGMAHIEQPWWYKHGKDMTPDEFGVVAARWLEEKILEIGADKVAAFVGEPIQGAGGVIVPPATYWPEIERICRKYDVLLVADEVICGFGRTGEWFGHQHFGFQPDLFTAAKGLSSGYLPIGAVFVGKRVAEGLIAGGDFNHGFTYSGHPVCAAVAHANVAALRDEGIVQRVKDDIGPYMQKRWRETFSRFEHVDDVRGVGMVQAFTLVKNKAKRELFPDFGEIGTLCRDIFFRNNLIMRACGDHIVSAPPLVMTRAEVDEMLAVAERCLEEFEQTLKARGLA	accepted 7-aminoheptanote as substrate	accepted 7-aminoheptanol as substrate	accept 7-oxoheptanol as substrate	–	accepted pimelate semialdehyde as substrate and synthesized 7-aminoheptanoate	–
